# Earlier results, collected in article PMC3288267.
# Experiments:
# [1] = molecular target: transferrin receptor 1 (TfR), immobilised on SPR chip (UniProt P02786); assay: Surface plasmon resonance, kinetic; conditions: pH endosomal pH (numeric value not given)
# [2] = molecular target: transferrin receptor 1 (TfR), immobilised on SPR chip (UniProt P02786); assay: Surface plasmon resonance, equilibrium binding; conditions: pH endosomal pH (numeric value not given)
# UniProt P02786, sequence (P02786 whole entry): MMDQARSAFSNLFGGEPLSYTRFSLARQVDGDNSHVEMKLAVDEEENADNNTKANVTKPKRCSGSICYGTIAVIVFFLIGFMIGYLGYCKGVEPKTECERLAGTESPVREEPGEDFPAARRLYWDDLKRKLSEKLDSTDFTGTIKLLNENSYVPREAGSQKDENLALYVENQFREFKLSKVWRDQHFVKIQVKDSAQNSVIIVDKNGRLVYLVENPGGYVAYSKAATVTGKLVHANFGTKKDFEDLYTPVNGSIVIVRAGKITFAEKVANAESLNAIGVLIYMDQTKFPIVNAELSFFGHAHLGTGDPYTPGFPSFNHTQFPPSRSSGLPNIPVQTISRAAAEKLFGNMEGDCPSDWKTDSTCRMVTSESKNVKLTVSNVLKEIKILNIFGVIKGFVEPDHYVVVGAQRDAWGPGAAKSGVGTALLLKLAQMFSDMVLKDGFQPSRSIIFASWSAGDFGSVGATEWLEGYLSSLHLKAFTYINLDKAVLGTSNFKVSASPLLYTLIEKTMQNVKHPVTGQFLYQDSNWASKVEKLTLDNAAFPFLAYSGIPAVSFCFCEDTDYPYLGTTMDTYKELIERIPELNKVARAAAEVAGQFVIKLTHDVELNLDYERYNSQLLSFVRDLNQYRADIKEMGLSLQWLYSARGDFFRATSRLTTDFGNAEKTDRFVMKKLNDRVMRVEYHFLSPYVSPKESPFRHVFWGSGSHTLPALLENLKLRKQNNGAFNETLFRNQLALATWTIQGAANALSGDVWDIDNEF
substance,measurement,setting,value
"apo-transferrin (iron-free), SPR analyte","KD (from kd,end/ka,end)",[1],1.3 nM
same,"ka,end (association rate constant; kend,a in Table 1)",[1],4.4 ± 0.4 × 10^7 min^−1 M^−1
same,"kd,end (dissociation rate constant; kend,d in Table 1)",[1],0.000933 ± 0.0002 s⁻¹
same,KD (equilibrium SPR),[2],<15 nM
